Common to all, as to experiment: GST pull-down of 35S-labeled protein on glutathione-Sepharose beads
For test [1], the target named is T1, glutathione S-transferase (GST) control (UniProt P08515 1-218 = GST).
T1 construct: Control protein immobilized on glutathione-Sepharose beads
How it is done: (§1) After 36 h, extracts are prepared and immunoprecipitated with a monoclonal antibody to the Flag-epitope. The immunoprecipitates (upper panel) and the corresponding cellular lysates (lower panel) are analyzed by SDS-PAGE and immunoblotted with a HRP-conjugated T7-antibody. IP, immunoprecipitates. (C) Mutations in the BH3 domain of Blk abrogate its ability to interact with Bcl-2 and Bcl-xL. 35S-labeled wild type Blk, mutant Blk-DG59 (M1) or mutant Blk-DG59-D60 (M2) (lane 1, input) are precipitated with GST (lane 2), GST-Bcl-2 (lane 3), or GST-Bcl-xL (lane 4) and then analyzed by SDS-PAGE and Coomassie staining to detect the GST fusion proteins (lower panel) and autoradiography to detect the interacting labeled proteins (upper panel). (D) Mutations in the BH3 domain of Blk abrogate its proapoptotic activity. MCF-7 cells are transfected with the indicated plasmids and then assayed for apoptosis as in FIG. 3A.
(§2) Blk binds Bcl-2 and Bcl-xL. All the proapoptotic Bcl-2 family members can heterodimerize with Bcl-2 and Bcl-xL. To determine whether Blk can also bind to Bcl-2 or Bcl-xL, in vivo and in vitro binding studies are performed. Bcl-2 and Bcl-xL are constructed as GST fusion proteins inpGEX-4T-2 and pGEX-2T, respectively, by placing the coding sequence of Bcl-2 or Bcl-XL in frame C-terminal to the GST protein (Pharmacia). GST fusion proteins are expressed in E. coli and purified by affinity chromatography on a glutathione-coupled substrateGlutathione Sepharose 4B (Pharmacia). ³⁵S-labeled (Blk, Bik, Bax) proteins are expressed in vitro using a coupled transcription/translation system in rabbit reticulocyte lysate (TNT Kit; Promega). In vitro protein-protein interactions are carried out according to Boyd et. al. (supra). Briefly, labeled proteins are precleared by mixing with glutathione-coupled Sepharose beads, which are then removed by centrifugation. The supernatants are incubated with GST-Bcl-2, GST-Bcl-xL or GST immobilized on glutathione-coupled Sepharose beads for 2 h at 4° C. After extensive washing, proteins are recovered by boiling the beads in SDS-sample buffer and analyzed on 12% SDS-PAGE.
(§3) ³⁵S-labeled Blk, Bik or Bax are precipitated with glutathione S-transferase (GST), GST-Bcl-2 or GST-Bcl-xL fusion proteins immobilized on glutathione-Sepharose beads (FIG. 5A).

Test [2] addresses T2, GST-Bcl-2 fusion protein (human, UniProt P08515 1-218 = GST; P10415 1-239).
T2 construct: Expressed in E. coli and immobilized on Glutathione Sepharose 4B beads
Here is the method:
as §1, §2, §3

The target of test [3] is T3, GST-Bcl-xL fusion protein (human, UniProt P08515 1-218 = GST; Q07817 1-233).
T3 construct: Expressed in E. coli and immobilized on Glutathione Sepharose 4B beads
How it is done: as §1, §2, §3

T1 sequence (P08515 whole entry): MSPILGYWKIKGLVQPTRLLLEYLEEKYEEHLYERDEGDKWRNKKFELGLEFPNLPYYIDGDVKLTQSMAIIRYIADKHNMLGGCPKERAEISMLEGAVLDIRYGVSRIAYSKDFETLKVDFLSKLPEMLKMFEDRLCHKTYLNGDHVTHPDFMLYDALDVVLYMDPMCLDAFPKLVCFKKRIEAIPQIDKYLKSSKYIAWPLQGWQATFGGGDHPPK
T2 sequence (P08515 1-218, tags or fused parts left off): as the sequence (P08515 whole entry) above
T3 sequence (P08515 1-218, tags or fused parts left off): as the sequence (P08515 whole entry) above

B1: Bik (other, human, UniProt Q13323 1-160, looked up)
chain: MSEVRPLSRDILMETLLYEQLLEPPTMEVLGMTDSEEDLDPMEDFDSLECMEGSDALALRLACIGDEMDVSLRAPRLAQLSEVAMHSLGLAFIYDQTEDIRDVLRSFMDGFTTLKENIMRFWRSPNPGSWVSCEQVLLALLLLLALLLPLLSGGLHLLLK
modifications: 35S-labeled (in vitro translated)
notes: also called human Bik/Nbk; 35S-labeled Bik
For the molecule B1, in test [1], the binding result is reported as “no binding”.

B2: mutant Blk-DG59-D60 (Gly59 and Asp60 deleted) (other)
chain: MSEARLMARDVIKTVPHDQVPQPPVASETPSMKEPVRDVDLMECVEGRNQVALRLACIEMDLCLRSPRLVQLPGIAIHRLAVTYSRTGVRGIFRSLIRSLTNLRENIWSWRVLTPGAWVSPDQDPGQLFPMVLLVFLLLGGAWYLQLQ
modifications: 35S-labeled (in vitro translated) in the GST pull-down
notes: Cloned in pFLAG CMV-2 and the pRSC vector; also called M2
As to B2, the binding result in test [2] and in test [3] was “no binding” each time.

B3: murine Blk (Bik-like killer), wild type (other)
chain: MSEARLMARDVIKTVPHDQVPQPPVASETPSMKEPVRDVDLMECVEGRNQVALRLACIGDEMDLCLRSPRLVQLPGIAIHRLAVTYSRTGVRGIFRSLIRSLTNLRENIWSWRVLTPGAWVSPDQDPGQLFPMVLLVFLLLGGAWYLQLQ
modifications: 35S-labeled (in vitro translated in rabbit reticulocyte lysate) in the GST pull-down
notes: Protein of 150 amino acids; Used 35S-labeled from in vitro transcription/translation in the pull-downs, and expressed from pRSC-LacZ in the apoptosis assays; also called 35S-labeled Blk; wild type Blk
With B3, the binding result in test [1] is “no binding”.

For the origin of these results see patent US20030060416A1 (IDUN PHARMACEUTICALS, published 2003).
